Protein production data for 18 sequences are collected here from a protein production outcome set (Wang et al. 2014).

This series can be described thus: label from the status in PepcDB records.
In the case of “MRKTYKYRLYTCERNKHLVESIELASVVWNHFVALTRRYYEIYGEYPGYYALKKHLTKLKQRDKGHWYDLNSQALQNVIERLDQAYQRFFEIDSAGRPGFKKREKYTSFTLTQTGWKLLGGNRVRIQNHNYKFVKSRPIKGEIKTVTIKRDACGYLWICFSVEKEPPTPELPRTGNAVGLDFGLKDFLVTSDGDRIQAPEPLQESLEEVQDLHKKLSRKERGSNNRKEAKRRLAKKYRQIDNQRKDFHFKLARRLFSRYDVVCIEELNVGAMKELWGRKVSDLGFASFVKILEHVAQKEGKEVRKIDRWFPSSQTCSDCSHRYEDLSLEERTWTCEECGSLHDRDLNAARNVLERALSSAEAGVRPSGAAARVARSS”, the protein production entry was “failed”.

Turning to “MRKYEIMYIIRPGVEEEAQKALVERFAGVLTNNGAEIINTKEWGKRRLAYEINDLREGFYMILNVNANAEAINEFDRLAKINEDILRHIVVKEEEK”, the protein production entry is “not failed”.

For “MRLAYVKNHEIYGEKLLGLTLRERIEKTLQRAGFDVRFFDELSLEEAEDYLIILEPVLILERDLLLEGRKILVSDGFTVGYFFGGDFRTVFDGNLQSSIEKYLSLNNLESYEIWAIKLSNDNLKTAEKLLLSSLIKAKRTGLKPAYYDGWIAREINRKVSLRISRLLADTSVTPNQITVFSFFLSLVGSALFLLNSYLTTLLAGVIIQLHSIIDGCDGEIARLKFMESKYGAWLDGVLDRYSDFIIVFSITYVLSASNPVYWIIGFLAAFASLMIAYTGDKFVAAYMRTYSPEGFAIPITRDFRLLIIFACSVVNLPSLALVIIALLGNFEALRRIVALRSYTN”, the protein production entry is “failed”.

Regarding “MRLILNLIWLFFGGIWLALGYVFFGIIACIFIVTIPAGIASFRMANYALWPFGRTVVRNPKAGGFSALSNGLWFIIAGLWLAIGHLTTAAAQAITIIGIPLAIANIRMIPVTCFPFGKEIYDSNRIPFGYEPMVKF”, the protein production entry was “failed”.

With “MRLILSQCLANLSVRFLMNRNSYNKIAHLWNVARNGFFGREREYLDAILSVAPIGSTILDLGCGTGRPMAEYIVSRGRCVLGVDQSEEMLRLARQKLPHEQWVLSSIESYEPVEGYHGALLWDSLFHIRRTEHELIVSKVVRGLPSGGRLMLTVGGSAHPEFTDFMYGEEFYYDSNTPQETETFLQRLSCRMVIGEYMNLPDGGRDKGRYAIVAEKILEHHHHHH”, the protein production entry was “failed”.

In the case of “MRLIVVGIAEDITEKKQLETELQRLATTDVLTQSSNRRHFFECANREFEQARLQGSSLAFLLLDIDDFKVINDTYGHPEGDIVLQRIAESGRAALRRGDLFGRIGGEEFAAVFPGCTADMARQVAERLQREIQRQNFSHQGQTFTITVSQGLTGLLAEDESLDNLFARADSAMYEAKRQGKNRIITGLEHHHHHH”, the protein production result is “failed”.

For the sequence “MRLKKQLLGSLLVVIVVLSIAVATTKQQKGFVTGQPTGALNLSDILDSEELGEYHLMSAAIITGNTVDFSGLGAGPDDPFEIASITKIFTGELLRLQIERGEITESTAVGDVLGERVADSLIRDITVEELANHTSGLPRLGNVGLRPFMATFFDKNPYKDLSADRVISISTTSKLNSRGEFHYSNLGFALLGQVLARNAGLTFDQLLDRDLLAPLNLNNTKLMTPESLAQDAPQGFSTPGKQVEAWEMDGFLPAAGLRSTARDMAVFCQYLFTKGPAPFTWQSLESAPEIVWHNGESFGYSSVLFFNTATTTAIFVAADVATSVFPIGHELLMANSTRQESK”, the protein production result is recorded as “failed”.

On to “MRLLIAGRLFFGLGLALWALGAGPSPARAAGMSLIRDAEIENTIAMIATPLLRAASIGDRAITFRLINDDTINAFATTEMRVFVYTGLFLKTEGPDELKGVIAHEMGHLAGGHLLRMKDEMANASMTALVGMLAGAAAGIASGRGDVGSAVMMGTNQAAMRGFLTFSRTQESSADSFAMRMLDATGQSAAGMLKFFRKLGDQEALITASQDPYVRTHPLTRDRITAVADHVAHSRFSDVPPSPAEVLAYQRAKAKLMAFLKSTGATLAAYPATDRSVAARYARAIAYYRAGDLGRALPLIDGLIAEDPNDPYFEELRGQMLFENQRLREALGSYTKAARLAPTEPLILVSLAHVQVELGDRPLLENALTNLNAALGLDPTNSFAWRQMANASGKLGDEAMAAYYLAEMALSQGDPREALAHAKRAEGRIPKGSPQGLRLQDLIAEAERQKKRQEDRD”, for which the protein production result was “failed”.

As for “MRLMIIFDLPVETSEERKEYRKFRKNLINEGFIMIQYSVYVRVCVNKKSAEFTEKRIESFLPSKGVVQSLILTEKQYNDMHFLLGKKIKEVRNSAERTIIL”, the protein production entry is “failed”.

On to “MRLSPAPLKLSRTPALLALALPLAAALAFSDETLDKVPKSEGYCSRILRAQGTRREGYTEFSLRVEGDPDFYKPGTSYRVTLSAAPPSYFRGFTLIALRENREGDKEEDHAGTFQIIDEEETQFMSNCPVAVTESTPRRRTRIQVFWIAPPAGTGCVILKASIVQKRIIYFQDEGSLTKKLCEQDSTFDGVTDKPILDCCACGTAKYRLTFYGNWSEKTHPKDYPRRANHWSAIIGGSHSKNYVLWEYGGYASEGVKQVAELGSPVKMEEEIRQQSDEVLTVIKAKAQWPAWQPLNVRAAPSAEFSVDRTRHLMSFLTMMGPSPDWNVGLSAEDLCTKECGWVQKVVQDLIPWDAGTDSGVTYESPNKPTIPQEKIRPLTSLDHPQSPFYDPEGGSITQVARVVIERIARKGEQCNIVPDNVDDIVADLAPEEKDEDDTPETCIYSNWSPWSACSSSTCDKGKRMRQRMLKAQLDLSVPCPDTQDFQPCMGPGCSDEDGSTCTMSEWITWSPCSISCGMGMRSRERYVKQFPEDGSVCTLPTEETEKCTVNEECSPSSCLMTEWGEWDECSATCGMGMKKRHRMIKMNPADGSMCKAETSQAEKCMMPECHTIPCLLSPWSEWSDCSVTCGKGMRTRQRMLKSLAELGDCNEDLEQVEKCMLPECPIDCELTEWSQWSECNKSCGKGHVIRTRMIQMEPQFGGAPCPETVQRKKCRIRKCLRNPSIQKLRWREARESRRSEQLKEESEGEQFPGCRMRPWTAWSECTKLCGGGIQERYMTVKKRFKSSQFTSCKDKKEIRACNVHPC”, for which the protein production entry is on record as “failed”.

With “MRLVERHIVKTNHQFYKEIDDLAWRSKNLYNYVNYLVRQSFIFDGKYLNNAAIFHLVKHHESYTALPRKVSNQVLMVLHRNWKSFFETHKAYKQNPSKFKGCPKLPKYKNKEKGRNIVIYELGAISKPLLKQGVIKLSQTEIQFPTKASNIQQVRLIPQCGQYVVEVVYLQDATPQQLNPDWVAGIDIGLDNLAALTSNKPGFKPVLVNGRPLKAINQQYNKAKARLQSQLKGNAKTSRRIQALTCKRNNRIDNYLHNASRWIINHLASAGIGTLVIGKNDQWKQEINLGTTTNQNFVSIPHARFIEQLKYKAELVAMTVLINEESYTSASSFLDLDPIPVYQEGVKHSFSGKRIKRAWYQSANGRFIHADINASLNITRKVVPAAFSLGIAGIAVCPSRITPGKVAI”, the protein production entry is given as “failed”.

Consider “MRLVQLSRHSIAFPSPEGALREPNGLLALGGDLSPARLLMAYQRGIFPWFSPGDPILWWSPDPRAVLWPESLHISRSMKRFHKRSPYRVTMNYAFGQVIEGCASDREEGTWITRGVVEAYHRLHELGHAHSIEVWREBELVGGMYGVAQGTLFCGESMFSRMENASKTALLVFCEEFIGHGGKLIDCQVLNDHTASLGACEIPRRNYLNYLNQMRLGRLPNNFWVPRCLFSPQE”, for which the protein production entry is on record as “not failed”.

Take “MRLYERSSCLLQPPDYSLMNDSTDAQDVSQARVWLWAARPKTLGAAVAPVLVGTGMALEAGAWHLLSALLALAGAVLIQVGVNYHNDYADYVQGADTQERVGPLRVTQAGLVAPQTMRRATILVFGLAVMAGLYLIARGGWPILAVGVASIGAAIWYTAGRYSLAALGLADVFVFVFFGPVAVGGTYYVQALSLPTEVLLAGGGPGLLSIGILLVNNVRDVAEDRRAGKRTLVVRFGRRFGVAAYGACLVGALLLAGLLAAGLFGTTPHPWAALPLGLLPLAIGPIRRLSETTDPEKLNPLLGATGRILVLWALLFAVGWNL”: the protein production entry is given as “failed”.

On to “MRLYKIGLVLLLWVFAVTAQAELRFPALSGRVVDDAQMIEPTISALLTRQLQAHEQATGEQLVVVTLPDLQGASIEEFGYQLGRHWGIGQKDKNNGALLIVARDERKLRIEVGYGLEERLTDAQASVIINQVITPAFKTGQFSKGISDGVSAMLLVLGGTPLDEPTTVYDSGDSSSQDDFVQRHPLLFIFLVLLFILVIMVAQALGLITTTSGRGGGGGGGFGGFGGGSGGGGGFSGGGGSFGGGGSSGGWLEHHHHHH”, for which the protein production entry is reported as “failed”.

As to “MRMGVKDFAPSWFASVMGTGALALVSKSYSFKLPILEAFSKFLTYLNTIIFFVLLIPWLLRWIKYPSEAKKDLYHPVTSHFYGTMPIAMTIVAVNLAMFGYKEIALPLWILGSILVVIFAFLIPYLFFISEGVDVKTITPAWFIPPVGLIVIPLTSLPFVPSSVMWREVFIVLNYFGFGAGFFIYLALFAIVMRRFITHELLPPIMAPAVWINLGPLGAGAVALLNLAKIMPIAKSAFKAFAFILWGFGLWWLIMAILMTLHYLKNLHLPYSLAWWAFIFPLGAYVSATYNVGISIGITAMIEFGFALYWFLLALWLVTGIKTLVHDFSS”, the protein production result is listed as “failed”.

As to “MRMKPLKRSLPLLLALLLAACAGVKPPAAQPAQPETKPAAESGPDEAKLPKVALSPEILYGVLAGEIAARRGAAGSAGLTYLDLARETRDPRMAQRAAEFCLLSGQLKPATEALQLWIELDPESLPAREQLFITLMRGGKLAESKPLIEELLRLEPQRAPAIFVQLARLSARQDGGSAPSYRLVQELADRYPDLPEARFAVLAAAADNNDQAAVDRELNRLAGIAPKWDLPVAWQVDRLRRKDINEAADFLQRELARRPDAGLELQIAYPRLLVGAKRFPEARSAFEALLKTHPDNPDLLYATGLLAYQMRDLKTADDRLQRALARQYPEQDFVRYTLGQIAEDDRDAERAGNWYRQVGPGQQYLPAQSRLAMLEAADGRLDEALSRLSGLGGTDQEKVSLALLQSQLAREAKQPRRAYDLLTQALQRQPRSSELLYERSLVSDMLGNAGNAERDLRLILKDKPGDAQALNALGYTLANRTSRYQEAYGYIEKALKAEPDNPVIQDSMGWVQYKLGRLDAARKALEKAYAAMQDPEVGAHLGEVLWKQGRRDEALAVWRKELAQHPGHEVIAETMRRLGAKP”, the protein production result is “failed”.

As to “MRNDRSFIELRARERAHALLDDGSYRELLDPFEGIMSPWLGAQGIVPQSDDGMVVAKGTINGQPAVVIAIEGTFQGGSMGEVSGAKMAAALELAAEDNRNGIPTQAVLCLETGGVRLQEANLGLAAIADIHAAIVDLRRYTPVVGIITGTVGCFGGMSIAAALCSYLIVTREARLGLNGPQVIEQEAGIEEYDSRNRPFIWSMTGGEIRAASGLVDALVNDGVNAVKTAMIEAIAKGVPAQHRSDNYDDYLRRLSQFDTRQQADTAQIKQLFAREDK”, the protein production result is on record as “not failed”.

Regarding “MRNIAVILAGGSGQRLGENIPKQFLKIAGKKVIEHTITVFQNHSLIDEIVVVVHPDYIRDVEDISLRNSFNKLKKILLGGKERYHSSLAAINAYDEEVNLLFHDSVRPLVNERIINDCIRALLTYNAVDVAIPTTDTIIQVDDNNEIVKIPSRILLRNGQTPQAFKRSVIKAAYEKALLDPLFKTTDDCGVVLKYLPDESIYVVNGEQFNMKLTYKEDIFLLDKLFQLRSIRNQPTLLEKSEMEELQGKVVVVFGGTYGIGQDICEICREYKTSLYVYSRSTGVDVSNSQSVRRVLSEIFDKEGRIDWIVNTAGILDKQPLANMSYEAVHQSIDVNYLGNIIVAKESFFYLKESKGSLLFFTSSSYTRGRALYSLYSSSKAAIVNFVQALSEEWFEYGIRVNCINPERTKTPMRIQNFGNEPEDTLLEPKVVAIVSVNTLLSEMTGEVVDVKRLEHHHHHH”, the protein production result is recorded as “failed”.
